Consider three variants from PMC4741384 (2016).

To fix the notation:
B1: full-length mCherry-lacR-MDC1 [human] / FN-TNKS1 (flag tag and NLS signal, pCDNA 3.1) [human] (parent complex)
chain 1: MEDTQAIDWDVEEEEETEQSSESLRCNVEPVGRLHIFSGAHGPEKDFPLHLGKNVVGRMPDCSVALPFPSISKQHAEIEILAWDKAPILRDCGSLNGTQILRPPKVLSPGVSHRLRDQELILFADLLCQYHRLDVSLPFVSRGPLTVEETPRVQGETQPQRLLLAEDSEEEVDFLSERRMVKKSRTTSSSVIVPESDEEGHSPVLGGLGPPFAFNLNSDTDVEEGQQPATEEASSAARRGATVEAKQSEAEVVTEIQLEKDQPLVKERDNDTKVKRGAGNGVVPAGVILERSQPPGEDSDTDVDDDSRPPGRPAEVHLERAQPFGFIDSDTDAEEERIPATPVVIPMKKRKIFHGVGTRGPGAPGLAHLQESQAGSDTDVEEGKAPQAVPLEKSQASMVINSDTDDEEEVSAALTLAHLKESQPAIWNRDAEEDMPQRVVLLQRSQTTTERDSDTDVEEEELPVENREAVLKDHTKIRALVRAHSEKDQPPFGDSDDSVEADKSSPGIHLERSQASTTVDINTQVEKEVPPGSAIIHIKKHQVSVEGTNQTDVKAVGGPAKLLVVSLEEAWPLHGDCETDAEEGTSLTASVVADVRKSQLPAEGDAGAEWAAAVLKQERAHEVGAQGGPPVAQVEQDLPISRENLTDLVVDTDTLGESTQPQREGAQVPTGREREQHVGGTKDSEDNYGDSEDLDLQATQCFLENQGLEAVQSMEDEPTQAFMLTPPQELGPSHCSFQTTGTLDEPWEVLATQPFCLRESEDSETQPFDTHLEAYGPCLSPPRAIPGDQHPESPVHTEPMGIQGRGRQTVDKVMGIPKETAERVGPERGPLERETEKLLPERQTDVTGEEELTKGKQDREQKQLLARDTQRQESDKNGESASPERDRESLKVEIETSEEIQEKQVQKQTLPSKAFEREVERPVANRECDPAELEEKVPKVILERDTQRGEPEGGSQDQKGQASSPTPEPGVGAGDLPGPTSAPVPSGSQSGGRGSPVSPRRHQKGLLNCKMPPAEKASRIRAAEKVSRGDQESPDACLPPTVPEAPAPPQKPLNSQSQKHLAPPPLLSPLLPSIKPTVRKTRQDGSQEAPEAPLSSELEPFHPKPKIRTRKSSRMTPFPATSAAPEPHPSTSTAQPVTPKPTSQATRSRTNRSSVKTPEPVVPTAPELQPSTSTDQPVTSEPTSQVTRGRKSRSSVKTPETVVPTALELQPSTSTDRPVTSEPTSQATRGRKNRSSVKTPEPVVPTAPELQPSTSTDQPVTSEPTYQATRGRKNRSSVKTPEPVVPTAPELRPSTSTDRPVTPKPTSRTTRSRTNMSSVKTPETVVPTAPELQISTSTDQPVTPKPTSRTTRSRTNMSSVKNPESTVPIAPELPPSTSTEQPVTPEPTSRATRGRKNRSSGKTPETLVPTAPKLEPSTSTDQPVTPEPTSQATRGRTNRSSVKTPETVVPTAPELQPSTSTDQPVTPEPTSQATRGRTDRSSVKTPETVVPTAPELQASASTDQPVTSEPTSRTTRGRKNRSSVKTPETVVPAAPELQPSTSTDQPVTPEPTSRATRGRTNRSSVKTPESIVPIAPELQPSTSRNQLVTPEPTSRATRCRTNRSSVKTPEPVVPTAPEPHPTTSTDQPVTPKLTSRATRRKTNRSSVKTPKPVEPAASDLEPFTPTDQSVTPEAIAQGGQSKTLRSSTVRAMPVPTTPEFQSPVTTDQPISPEPITQPSCIKRQRAAGNPGSLAAPIDHKPCSAPLEPKSQASRNQRWGAVRAAESLTAIPEPASPQLLETPIHASQIQKVEPAGRSRFTPELQPKASQSRKRSLATMDSPPHQKQPQRGEVSQKTVIIKEEEEDTAEKPGKEEDVVTPKPGKRKRDQAEEEPNRIPSRSLRRTKLNQESTAPKVLFTGVVDARGERAVLALGGSLAGSAAEASHLVTDRIRRTVKFLCALGRGIPILSLDWLHQSRKAGFFLPPDEYVVTDPEQEKNFGFSLQDALSRARERRLLEGYEIYVTPGVQPPPPQMGEIISCCGGTYLPSMPRSYKPQRVVITCPQDFPHCSIPLRVGLPLLSPEFLLTGVLKQEAKPEAFVLSPLEMSST
chain 2: MAASRRSQHHHHHHQQQLQPAPGASAPPPPPPPPLSPGLAPGTTPASPTASGLAPFASPRHGLALPEGDGSRDPPDRPRSPDPVDGTSCCSTTSTICTVAAAPVVPAVSTSSAAGVAPNPAGSGSNNSPSSSSSPTSSSSSSPSSPGSSLAESPEAAGVSSTAPLGPGAAGPGTGVPAVSGALRELLEACRNGDVSRVKRLVDAANVNAKDMAGRKSSPLHFAAGFGRKDVVEHLLQMGANVHARDDGGLIPLHNACSFGHAEVVSLLLCQGADPNARDNWNYTPLHEAAIKGKIDVCIVLLQHGADPNIRNTDGKSALDLADPSAKAVLTGEYKKDELLEAARSGNEEKLMALLTPLNVNCHASDGRKSTPLHLAAGYNRVRIVQLLLQHGADVHAKDKGGLVPLHNACSYGHYEVTELLLKHGACVNAMDLWQFTPLHEAASKNRVEVCSLLLSHGADPTLVNCHGKSAVDMAPTPELRERLTYEFKGHSLLQAAREADLAKVKKTLALEIINFKQPQSHETALHCAVASLHPKRKQVTELLLRKGANVNEKNKDFMTPLHVAAERAHNDVMEVLHKHGAKMNALDTLGQTALHRAALAGHLQTCRLLLSYGSDPSIISLQGFTAAQMGNEAVQQILSESTPIRTSDVDYRLLEASKAGDLETVKQLCSSQNVNCRDLEGRHSTPLHFAAGYNRVSVVEYLLHHGADVHAKDKGGLVPLHNACSYGHYEVAELLVRHGASVNVADLWKFTPLHEAAAKGKYEICKLLLKHGADPTKKNRDGNTPLDLVKEGDTDIQDLLRGDAALLDAAKKGCLARVQKLCTPENINCRDTQGRNSTPLHLAAGYNNLEVAEYLLEHGADVNAQDKGGLIPLHNAASYGHVDIAALLIKYNTCVNATDKWAFTPLHEAAQKGRTQLCALLLAHGADPTMKNQEGQTPLDLATADDIRALLIDAMPPEALPTCFKPQATVVSASLISPASTPSCLSAASSIDNLTGPLAELAVGGASNAGDGAAGTERKEGEVAGLDMNISQFLKSLGLEHLRDIFETEQITLDVLADMGHEELKEIGINAYGHRHKLIKGVERLLGGQQGTNPYLTFHCVNQGTILLDLAPEDKEYQSVEEEMQSTIREHRDGGNAGGIFNRYNVIRIQKVVNKKLRERFCHRQKEVSEENHNHHNERMLFHGSPFINAIIHKGFDERHAYIGGMFGAGIYFAENSSKSNQYVYGIGGGTGCPTHKDRSCYICHRQMLFCRVTLGKSFLQFSTMKMAHAPPGHHSVIGRPSVNGLAYAEYVIYRGEQAYPEYLITYQIMKPEAPSQTATAAEQKT

The variants in the test derive from B1. The experiment in a line: lacO-array tethering colocalization (immunofluorescence) in U2OS17 cells; N = 100 cells in each experiment, three independent experiments; read off a plot.
For chain 1 P951A, chain 1 E952A, chain 1 G953A, chain 1 L1996A, chain 1 E1997A, chain 1 G1998A, the screen value was roughly 3.7%.

Take chain 1 L1996A, chain 1 E1997A, chain 1 G1998A: the screen value was roughly 27%. To chain 1 P951A, chain 1 E952A, chain 1 G953A belongs roughly 30%.
